Test results taken from the supplement of paper PMC10567573.

B1: LOXL2 (parent)
chain: RLLRFSSQIHNNGQSDFRPKNGRH
B2: AUP1 (parent)
chain: EGLLRFSSWPFSIQDVVQPLTLQV

Variants of: B1
Assay: protein stability index of a GFP-peptide fusion (GPS, HEK-293T) (PSI 1-6); higher = more stable
Conditions: c terminus: a fixed tail appended
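Further: lentivirally expressed fusions sorted by FACS into six bins by GFP to DsRed ratio, PSI derived from sequencing read proportions per bin multiplied by bin number.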

Protein stability index, by site and new letter:
L3: I 3.14 | S 3.77 | Q 3.99 | D 3.98 | Y 3.44 | E 4.34 | A 3.59 | M 3.37 | G 3.63 | N 3.98 | H 3.79 | V 3.44 | W 2.64 | P 3.91 | F 3.05 | K 3.84 | R 3.81 | T 3.95 | C 2.88
N11: A 2.84
R4: M 2.81 | W 2.15 | Q 2.57 | C 2.87 | A 2.87 | K 2.27 | I 2.48 | P 3.86 | N 3.35 | E 2.87 | F 2.32 | H 2.74 | Y 2.66 | G 3.51 | V 2.62 | T 3.09 | L 2.36 | D 3.16 | S 2.79
R1: F 1.17 | S 2.58 | I 1.78 | V 1.89 | T 2.57 | E 2.41 | G 3.12 | M 2.66 | K 3.15 | P 4.01 | D 2.97 | N 2.65 | Q 2.48 | H 2.67 | W 1.65 | C 2.78 | Y 1.71 | A 2.41 | L 1.72
F5: Q 3.6 | N 3.92 | H 3.95 | E 3.94 | K 3.29 | P 3.71 | T 3.99 | L 2.54 | A 3.46 | Y 2.96 | W 2.15 | I 2.72 | M 2.77 | V 3.74 | G 4.21 | D 3.84 | R 3.69 | S 3.81 | C 3.06
S7: H 2.44 | C 2.41 | A 2.5 | L 1.78 | W 2.06 | D 3.57 | I 1.89 | P 4.2 | R 2.25 | K 2.21 | N 2.79 | T 2.21 | E 2.79 | M 1.79 | G 2.46 | F 1.79 | V 2.04 | Q 2.18 | Y 2.25
Q8: S 2.73 | Y 2.05 | A 2.94 | M 1.95 | C 2.21 | L 2.29 | T 2.67 | R 2.91 | D 3.81 | K 2.14 | F 2.07 | H 2.5 | P 3.54 | V 2.95 | I 2.23 | N 2.95 | W 1.77 | G 2.87 | E 3.17
S6: G 2.64 | T 2.46 | W 2.56 | K 3.05 | E 3.62 | Q 2.71 | R 2.99 | L 2.45 | V 3.85 | D 3.81 | Y 2.89 | I 3.34 | F 2.09 | M 2.51 | C 3.08 | P 3.41 | A 2.65 | N 3.03 | H 2.37
I9: P 3.44 | V 2.99 | E 3.93 | H 3.26 | K 2.31 | M 3.07 | G 3.48 | R 3.24 | D 3.5 | L 2.12 | W 2.74 | F 2.32 | Y 2.4 | A 2.81 | T 3.14 | S 3.04 | N 3.19 | C 3.11 | Q 3.14
L2: S 4.59 | W 2.71 | A 3.68 | D 4.51 | C 3.82 | M 3.27 | P 4.63 | V 3.52 | H 4.21 | K 3.91 | N 4.58 | G 4.6 | E 3.98 | F 2.82 | R 4.07 | Q 4.12 | T 4.69 | I 3.28 | Y 3.35
H10: D 3.68 | S 2.71 | I 2.24 | K 2.8 | C 2.46 | Y 1.87 | N 3.06 | R 2.36 | F 2.13 | E 3.43 | V 2.68 | W 2.13 | A 3.28 | T 2.89 | M 2.47 | P 3.12 | Q 2.83 | L 2.14 | G 2.57

Variants of: B2
Assay: as above
Conditions: c terminus: a fixed tail appended

Protein stability index: each site, then its substitutions
Q18: Y 4.33 | E 2.6 | A 2.25
L22: D 2.61 | E 2.15 | V 2.62 | K 1.76 | Y 2.16 | A 1.68 | I 2.13 | G 1.6 | C 1.85 | F 3.96
D15: L 2.63 | M 2.12 | Q 3.59
R5: F 3.67 | T 3.1 | K 1.37 | E 4.2 | W 3.31 | M 1.56
P19: L 4.13
F11: P 2.46 | T 2.46 | R 1.7 | G 1.05 | D 1.04 | S 3.39 | M 2.22 | Q 1.73 | N 1.85
V17: D 1.37 | E 1.38 | H 3.15 | N 2.03
G2: E 2.63 | R 2.83
S8: T 2.62 | E 2.23 | C 2.25 | F 3.08
P10: A 3.01 | D 2.04 | T 2.79 | H 4 | M 2.26 | Y 3.85 | I 1.55 | V 3.54
V16: C 3.11 | E 1.09 | H 3.18 | I 2.78 | P 3.33 | L 1.28 | D 1.08
W9: P 1.28 | S 1.73 | K 2.62 | C 3.91 | T 1.86 | N 1.42 | Q 2 | E 1.66
I13: T 2.84 | C 1.56 | R 2.4 | E 1.22 | H 1.94
L20: R 1.24 | K 1.19 | D 1.98 | E 1.89 | N 1.54 | Q 2.28 | T 1.73 | H 1.22 | I 5.25 | P 1.63
Q23: E 2.65 | H 1.98 | G 1.4 | S 1.4 | K 1.59 | C 1.61 | Y 2.82 | D 1.81
V24: E 2.06 | R 2.75 | P 1.57 | Q 1.53 | N 1.59 | M 5.7 | W 2.53 | C 2.23 | F 3.48 | Y 3.1 | G 2.14 | K 2.17 | L 2.77 | I 2.38 | T 1.45
T21: G 5.2 | C 1.52 | L 4.97 | E 2.9 | V 2.81 | P 1.8
S7: D 2.32 | P 2.2 | M 2.94 | W 1.83 | N 2.32
S12: D 1.95 | P 2.66 | H 2.25 | M 3.22
Q14: Y 3.36
F6: D 1.46 | K 1.7 | L 2.09 | S 1.24 | A 1.15 | N 1.4 | Y 1.33 | H 1.34 | E 1.36 | T 1.06 | Q 1.65
L3: E 2.41 | V 2.22 | A 1.76
L4: C 3.27 | S 1.27 | G 4 | I 3.16 | K 1.19
E1: R 4.19 | I 1.02 | P 1.82 | N 2.31 | M 1.43
